Measured values: patent US20150246949A1, “Desmoglein 2 (DSG2) Binding Proteins and Uses Therefor” (UNIVERSITY OF WASHINGTON THROUGH ITS CENTER FOR …, priority 2012, published 2015)
“Also recorded” adds a separate entry of the source.

T1: soluble CD46 (UniProt P15529 35-343)
T1 construct: also called sCD46
T1 sequence: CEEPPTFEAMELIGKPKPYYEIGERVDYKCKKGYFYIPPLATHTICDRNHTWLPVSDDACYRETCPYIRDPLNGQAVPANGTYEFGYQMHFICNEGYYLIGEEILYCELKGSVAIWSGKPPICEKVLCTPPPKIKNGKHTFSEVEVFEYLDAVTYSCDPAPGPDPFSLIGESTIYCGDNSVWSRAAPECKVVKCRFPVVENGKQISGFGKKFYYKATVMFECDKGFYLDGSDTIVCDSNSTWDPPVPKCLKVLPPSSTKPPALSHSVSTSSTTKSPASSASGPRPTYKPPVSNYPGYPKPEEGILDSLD

T2: Recombinant human DSG2 protein (Leinco Technologies) (human, UniProt Q14126 50-609)
T2 construct: also called soluble DSG2; soluble recombinant DSG2
T2 sequence: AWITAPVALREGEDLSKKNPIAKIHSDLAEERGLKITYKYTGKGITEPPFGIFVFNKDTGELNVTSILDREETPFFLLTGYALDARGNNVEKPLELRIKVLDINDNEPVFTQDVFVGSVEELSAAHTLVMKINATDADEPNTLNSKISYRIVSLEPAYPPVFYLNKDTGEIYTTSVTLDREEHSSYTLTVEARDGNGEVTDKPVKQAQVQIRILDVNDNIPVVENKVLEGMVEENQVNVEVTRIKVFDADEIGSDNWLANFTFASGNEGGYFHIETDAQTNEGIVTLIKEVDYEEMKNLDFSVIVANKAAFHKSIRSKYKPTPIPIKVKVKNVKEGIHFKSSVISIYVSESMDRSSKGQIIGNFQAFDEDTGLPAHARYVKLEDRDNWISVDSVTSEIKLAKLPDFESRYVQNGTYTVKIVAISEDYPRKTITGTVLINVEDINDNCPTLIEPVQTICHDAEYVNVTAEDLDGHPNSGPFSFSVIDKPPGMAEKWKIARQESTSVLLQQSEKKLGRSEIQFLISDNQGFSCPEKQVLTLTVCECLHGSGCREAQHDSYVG


Experiments:
soluble CD46 = target: T1, soluble CD46; test: Western blot, soluble CD46 as probe, anti-CD46 mAb
[1] = target: T2, Recombinant human DSG2 protein (Leinco …); test: SPR (BIAcore 3000), DSG2 immobilised on the sensor chip, knobs injected at 2.5 to 10 µg/ml, BIAeval
[2] = target: T2, Recombinant human DSG2 protein (Leinco …); test: SPR (BIAcore 3000), DSG2 immobilised on CM4 chip, knob injected
A549 xenograft tumors = test: Enhancement of irinotecan therapy in A549 xenograft tumors; assay type: in vivo, CB17-SCID/beige mice; details: 2 mg/kg i.v. one hour before irinotecan 37.5 mg/kg i.v.; days 15 and 25; N=5
Method: (§1) FIG. 5. Correlation of reduced DSG2 binding with the ability to open epithelial junctions. A) Transepithelial electrical resistance (TEER) measured on polarized colon cancer T84 cells. Cells were cultured in transwell chambers until the TEER was constant, i.e. tight junctions had formed. A total of 5 μg of dimeric Ad3 fiber knobs in PBS was then added for 1 hour to the apical chamber. TEER was measured at the indicated time points. N=6. For time points 1.5 and 4 hours the difference between JO-1 vs D261N and N186D was significant (p<0.01). The arrows indicate the addition and removal of Ad3 fiber knobs. B) Enhancement of irinotecan therapy. A total of 4×10^6 A549 cells were injected subcutaneously into CB17-SCID/beige mice. Once the tumor reached a volume of ˜100 mm^3 (day 15 after implantation), the mice were injected intravenously with 2 mg/kg JO-1, E299V, N186D, or PBS, followed by an intravenous injection of irinotecan (37.5 mg/kg) one hour later. The treatment was repeated on day 25. N=5. […] The difference between “irinotecan” vs “JO-1+irinotecan” was significant (p<0.01) from day 20 on.
FIG. 10. Combination of affinity-enhanced JO-1 versions with chemotherapy. A) Enhancement of irinotecan (I) therapy. The experimental setting was the same as in FIG. 5B. […] N=5. […] Mammary fat pad tumors were established from primary ovarian cancer ovc316 cells. Treatment was started when tumors reached a volume of 100 mm^3 Mice were injected intravenously with 2 mg/kg JO-1 or with 0.5 mg/kg JO-4, followed by an intravenous injection of PEGylated liposomal doxorubicin (PLD) (1 mg/kg) one hour later. Treatment was repeated weekly. […] A total of 4×10^6 TNBC MDA-MB-231 cells were injected into the mammary fat pad of CB17 SCID-beige mice. JO-4 (2 mg/kg) was intravenously injected 1 hour before the application of cetuximab (C) (10 mg/kg, i.p.) and nab-paclitaxel (nab-P) (5 mg/kg, i.v). Treatment was given weekly. N=10 P<0.01 at day 25 for nab-P+C vs JO-4+nab-P+C.
A549, MDA-MB-231, and ovc316 xenograft tumors were established by injection of the corresponding tumor cells into the mammary fat pad (1:1 with Matrigel) of CB17 mice. TC1-DSG2 tumors were established by subcutaneous injection of TC1-DSG2 cells into DSG2 transgenic mice. JO-0, JO-1, JO-2, or JO-4 were intravenously injected one hour before the application of chemotherapeutic drugs: Irinotecan/Camptosar™ (Pfizer Inc., Groton, Conn.), PEGylated liposomal doxorubicin/Lipodox™ (Sun Pharmaceuticals IN, India), cetuximab/Erbitux™ (ImClone, Somerville, N.J.), nanoparticle albumin conjugated paclitaxel/Abraxane™ (Abraxis Biosciences, Summit N.J.). Tumor volumes were measured three times a week. Each treatment group consisted of a minimum of 5 mice.

[3] = system: polarized colon cancer T84 cells; test: Transepithelial electrical resistance (TEER) permeability assay; assay type: cell-based; details: for Effect on TEER: 5 μg dimeric Ad3 fiber knob added 1 hour to apical chamber
Method: as §1
FIG. 9. Analysis of dimeric Ad3 fiber knob mutants with increased affinity to DSG2. A) Competition of Ad3-GFP virus infection on HeLa cells with dimeric affinity-enhanced mutant Y250F and JO-1 (dimeric wt Ad3 fiber knob). The experimental setting is as described for FIG. 3C. left panel: percentage of GFP positive cells. Right panel: mean fluorescence intensity. N=3. The standard deviation was less than 10%. B) Competition of Ad3-GFP virus infection on HeLa cells by Ad3 knob mutants with enhanced DSG2 binding but without dimerization domain. 1.5×10^5 HeLa cells were seeded into 24 well plates. Cells were incubated with the Ad3 knob mutants at the increasing concentrations for one hour at room temperature. 100 pfu/cell of Ad3GFP virus were then added and GFP expression was analyzed 18 hours later. C) TEER on colon cancer T84 cells. The experimental setting was the same as for FIG. 5A. The TEER at 4 hours is shown. N=3.
A total of 5×10^5 T84 cells were seeded in 12 mm transwell inserts (PET membrane, with 0.4 μm pore size (Corning, N.Y.) and cultured for >14 days until transepithelial electrical resistance (TEER) was stable. Culture medium was changed every 2-3 days. The cells were exposed to DSG2 ligands (20 μg/ml) in adhesion medium (DMEM, 1% FBS, 2 mM MgCl2, 20 mM HEPES) for 15 min at room temperature and TEER was measured and calculated as described elsewhere (39).

Molecule | binding result (soluble CD46) | Enhancement of irinotecan therapy (A549 xenograft tumors) | further results
Ad3-S3/Kn (ligand, also called wild-type Ad3 fibers) HSINLPIGNGLQIEQNKLCSKLGNGLTFDSSNSIALKNNTLWTGPKPEANCIIEYGKQNPDSKLTLILVKNGGIVNGYVTLMGASDYVNTLFKNKNVSINVELYFDATGHILPDSSSLKTDLELKYKQTADFSARGFMPSTTAYPFVLPNAGTHNENYIFGQCYYKASDGALFPLEVTVMLNKRLPDSRTSYVMTFLWSLNAGLAPETTQATLITSPFTFSYIREDD | no binding |  | 
Ad3-S2/Kn (ligand, also called wild-type Ad3 fibers) KLCSKLGNGLTFDSSNSIALKNNTLWTGPKPEANCIIEYGKQNPDSKLTLILVKNGGIVNGYVTLMGASDYVNTLFKNKNVSINVELYFDATGHILPDSSSLKTDLELKYKQTADFSARGFMPSTTAYPFVLPNAGTHNENYIFGQCYYKASDGALFPLEVTVMLNKRLPDSRTSYVMTFLWSLNAGLAPETTQATLITSPFTFSYIREDD | no binding |  | 
Ad3-S5/Kn (ligand, also called wild-type Ad3 fibers) GSLQLKVGSGLTVDTTDGSLEENIKVNTPLTKSNHSINLPIGNGLQIEQNKLCSKLGNGLTFDSSNSIALKNNTLWTGPKPEANCIIEYGKQNPDSKLTLILVKNGGIVNGYVTLMGASDYVNTLFKNKNVSINVELYFDATGHILPDSSSLKTDLELKYKQTADFSARGFMPSTTAYPFVLPNAGTHNENYIFGQCYYKASDGALFPLEVTVMLNKRLPDSRTSYVMTFLWSLNAGLAPETTQATLITSPFTFSYIREDD | no binding |  | 
wt Ad3 fiber knob without dimerization domain (ligand, range 108-319; also called wt Ad3knob/noDD; wt Ad3 knob (noDD); not shown: N-terminal 6-His tag of pQE30 and the Gly/Ser linker encoded by primer P1) NKLCSKLGNGLTFDSSNSIALKNNTLWTGPKPEANCIIEYGKQNPDSKLTLILVKNGGIVNGYVTLMGASDYVNTLFKNKNVSINVELYFDATGHILPDSSSLKTDLELKYKQTADFSARGFMPSTTAYPFVLPNAGTHNENYIFGQCYYKASDGALFPLEVTVMLNKRLPDSRTSYVMTFLWSLNAGLAPETTQATLITSPFTFSYIREDD |  |  | Kd [1]: 10.1 µM; koff [1]: 0.00572 s⁻¹; kon [1]: 527 M⁻¹ s⁻¹; Kd [2]: 10 µM
Ad3-S4/Kn (ligand, also called wild-type Ad3 fibers) GSLEENIKVNTPLTKSNHSINLPIGNGLQIEQNKLCSKLGNGLTFDSSNSIALKNNTLWTGPKPEANCIIEYGKQNPDSKLTLILVKNGGIVNGYVTLMGASDYVNTLFKNKNVSINVELYFDATGHILPDSSSLKTDLELKYKQTADFSARGFMPSTTAYPFVLPNAGTHNENYIFGQCYYKASDGALFPLEVTVMLNKRLPDSRTSYVMTFLWSLNAGLAPETTQATLITSPFTFSYIREDD | no binding |  | 
N186D (protein) MKVSALKEKVSALKEKVSALKEKVSALKEKVSALKEGSGGGSGGGSGGGSNSIALKNNTLWTGPKPEANCIIEYGKQNPDSKLTLILVKNGGIVNGYVTLMGASDYVNTLFKDKNVSINVELYFDATGHILPDSSSLKTDLELKYKQTADFSARGFMPSTTAYPFVLPNAGTHNENYIFGQCYYKASDGALFPLEVTVMLNKRLPDSRTSYVMTFLWSLNAGLAPETTQATLITSPFTFSYIREDD |  | not significant | Effect on TEER [3]: intermediate effects
JO-2: affinity enhanced version of JO-1; printed Y293D, Kd fits V239D; b41 links JO-2 to K217E/F224S (protein) MKVSALKEKVSALKEKVSALKEKVSALKEKVSALKEGSGGGSGGGSGGGSNSIALKNNTLWTGPKPEANCIIEYGKQNPDSKLTLILVKNGGIVNGYVTLMGASDYVNTLFKNKNVSINVELYFDATGHILPDSSSLKTDLELKYKQTADFSARGFMPSTTAYPFDLPNAGTHNENYIFGQCYYKASDGALFPLEVTVMLNKRLPDSRTSYVMTFLWSLNAGLAPETTQATLITSPFTFSYIREDD |  | increased irinotecan therapy significantly more than JO-1; also recorded: significant from day 20 on | TEER compared to JO-1 ([3]; dimeric affinity-enhanced mutants, TEER at 4 hours, N=3): significantly higher
E299V (protein) MKVSALKEKVSALKEKVSALKEKVSALKEKVSALKEGSGGGSGGGSGGGSNSIALKNNTLWTGPKPEANCIIEYGKQNPDSKLTLILVKNGGIVNGYVTLMGASDYVNTLFKNKNVSINVELYFDATGHILPDSSSLKTDLELKYKQTADFSARGFMPSTTAYPFVLPNAGTHNENYIFGQCYYKASDGALFPLEVTVMLNKRLPDSRTSYVMTFLWSLNAGLAPVTTQATLITSPFTFSYIREDD |  | not significant | Effect on TEER [3]: intermediate effects
